Assay results published in publication PMC5624674, “CbtA toxin of Escherichia coli inhibits cell division and cell elongation via direct and independent interactions with FtsZ and MreB” (PLoS Genetics, 2017).

T1: λCI-CbtA fusion protein (wild-type CbtA toxin of E. coli) (E. coli, UniProt P64524 1-124)
T1 construct: also called YeeV; source: bacterial two-hybrid fusion, produced in E. coli reporter strain FW102 OL2-62; not shown: λCI, N-terminal, kept
T1 sequence: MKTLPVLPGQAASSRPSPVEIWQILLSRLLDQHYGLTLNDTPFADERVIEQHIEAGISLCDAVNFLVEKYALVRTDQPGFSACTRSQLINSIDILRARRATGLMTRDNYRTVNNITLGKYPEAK

T2: λCI-CbtA-V48E (E. coli, UniProt P64524 1-124, V48E)
T2 construct: source: bacterial two-hybrid fusion, produced in E. coli reporter strain FW102 OL2-62; not shown: λCI, N-terminal, kept
T2 sequence: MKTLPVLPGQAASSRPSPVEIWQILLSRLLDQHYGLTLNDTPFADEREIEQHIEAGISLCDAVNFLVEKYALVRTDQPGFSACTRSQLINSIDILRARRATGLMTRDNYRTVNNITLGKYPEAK

B1: α-FtsZ fusion protein (wild-type E. coli FtsZ) (natural protein, UniProt P0A9A6 1-383, looked up)
chain: MFEPMELTNDAVIKVIGVGGGGGNAVEHMVRERIEGVEFFAVNTDAQALRKTAVGQTIQIGSGITKGLGAGANPEVGRNAADEDRDALRAALEGADMVFIAAGMGGGTGTGAAPVVAEVAKDLGILTVAVVTKPFNFEGKKRMAFAEQGITELSKHVDSLITIPNDKLLKVLGRGISLLDAFGAANDVLKGAVQGIAELITRPGLMNVDFADVRTVMSEMGYAMMGSGVASGEDRAEEAAEMAISSPLLEDIDLSGARGVLVNITAGFDLRLDEFETVGNTIRAFASDNATVVIGTSLDPDMNDELRVTVVATGIGMDKRPEITLVTNKQVQQPVMDRYQQHGMAPLTQEQKPVAKVVNDNAPQTAKEPDYLDIPAFLRKQAD
notes: also called λCI-FtsZ; Eco FtsZ; not shown: RNA polymerase α subunit N-terminal domain, N-terminal, kept

How the values were obtained:
Experiment in all cases: two-hybrid
[1] = biological target: T3, λCI-RodZNTD (residues 2–84) (E. coli, UniProt P27434 2-84); settings: partners not purified
T3 construct: also called cytoplasmic N-terminal domain of RodZ; not shown: λCI, N-terminal, kept

[2] = biological target: T4, λCI-ZipACTD (residues 186–328) (E. coli, UniProt P77173 186-328); settings: partners not purified
T4 construct: also called C-terminal domain of ZipA; not shown: λCI, N-terminal, kept

[3] = biological target: T1, λCI-CbtA fusion protein (wild-type CbtA …); settings: partners not purified
[4] = biological target: the molecule itself
[5] = biological target: B1; settings: partners not purified
[6] = biological target: T2, λCI-CbtA-V48E; settings: partners not purified

T3 sequence (P27434 2-84): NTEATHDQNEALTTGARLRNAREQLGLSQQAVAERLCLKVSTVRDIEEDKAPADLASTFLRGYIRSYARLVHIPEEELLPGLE

Binder	percent reduction of lacZ expression against wild-type α-MreB [1] [%]	percent reduction of lacZ expression against wild-type α-FtsZ [5] [%]	other results
α-MreB-E196G (natural protein, E. coli, UniProt P0A9X4 1-347, looked up, not shown: RNA polymerase α subunit N-terminal domain, N-terminal, kept) MLKKFRGMFSNDLSIDLGTANTLIYVKGQGIVLNEPSVVAIRQDRAGSPKSVAAVGHDAKQMLGRTPGNIAAIRPMKDGVIADFFVTEKMLQHFIKQVHSNSFMRPSPRVLVCVPVGATQVERRAIRESAQGAGAREVFLIEEPMAAAIGAGLPVSEATGSMVVDIGGGTTEVAVISLNGVVYSSSVRIGGDRFDGAIINYVRRNYGSLIGEATAERIKHEIGSAYPGDEVREIEVRGRNLAEGVPRGFTLNSNEILEALQEPLTGIVSAVMVALEQCPPELASDISERGMVLTGGGALLRNLDRLLMEETGIPVVVAEDPLTCVARGGGKALEMIDMHGGDLFSEE	< 30	–	–
α-MreB-E262G (natural protein, E. coli, UniProt P0A9X4 1-347, looked up, not shown: RNA polymerase α subunit N-terminal domain, N-terminal, kept) MLKKFRGMFSNDLSIDLGTANTLIYVKGQGIVLNEPSVVAIRQDRAGSPKSVAAVGHDAKQMLGRTPGNIAAIRPMKDGVIADFFVTEKMLQHFIKQVHSNSFMRPSPRVLVCVPVGATQVERRAIRESAQGAGAREVFLIEEPMAAAIGAGLPVSEATGSMVVDIGGGTTEVAVISLNGVVYSSSVRIGGDRFDEAIINYVRRNYGSLIGEATAERIKHEIGSAYPGDEVREIEVRGRNLAEGVPRGFTLNSNEILEALQGPLTGIVSAVMVALEQCPPELASDISERGMVLTGGGALLRNLDRLLMEETGIPVVVAEDPLTCVARGGGKALEMIDMHGGDLFSEE	< 30	–	–
α-MreB-I126V (natural protein, E. coli, UniProt P0A9X4 1-347, looked up, not shown: RNA polymerase α subunit N-terminal domain, N-terminal, kept) MLKKFRGMFSNDLSIDLGTANTLIYVKGQGIVLNEPSVVAIRQDRAGSPKSVAAVGHDAKQMLGRTPGNIAAIRPMKDGVIADFFVTEKMLQHFIKQVHSNSFMRPSPRVLVCVPVGATQVERRAVRESAQGAGAREVFLIEEPMAAAIGAGLPVSEATGSMVVDIGGGTTEVAVISLNGVVYSSSVRIGGDRFDEAIINYVRRNYGSLIGEATAERIKHEIGSAYPGDEVREIEVRGRNLAEGVPRGFTLNSNEILEALQEPLTGIVSAVMVALEQCPPELASDISERGMVLTGGGALLRNLDRLLMEETGIPVVVAEDPLTCVARGGGKALEMIDMHGGDLFSEE	< 30	–	–
α-MreB-V173A (natural protein, E. coli, UniProt P0A9X4 1-347, looked up, not shown: RNA polymerase α subunit N-terminal domain, N-terminal, kept) MLKKFRGMFSNDLSIDLGTANTLIYVKGQGIVLNEPSVVAIRQDRAGSPKSVAAVGHDAKQMLGRTPGNIAAIRPMKDGVIADFFVTEKMLQHFIKQVHSNSFMRPSPRVLVCVPVGATQVERRAIRESAQGAGAREVFLIEEPMAAAIGAGLPVSEATGSMVVDIGGGTTEAAVISLNGVVYSSSVRIGGDRFDEAIINYVRRNYGSLIGEATAERIKHEIGSAYPGDEVREIEVRGRNLAEGVPRGFTLNSNEILEALQEPLTGIVSAVMVALEQCPPELASDISERGMVLTGGGALLRNLDRLLMEETGIPVVVAEDPLTCVARGGGKALEMIDMHGGDLFSEE	< 30	–	–
B1	–	–	fold increase in lacZ expression [2]: 10 fold; fold increase in lacZ expression [3]: 18 fold; fold increase in lacZ expression [4]: 4 fold
α-FtsZ-D180N (natural protein, E. coli, UniProt P0A9A6 1-383, looked up, not shown: RNA polymerase α subunit N-terminal domain, N-terminal, kept) MFEPMELTNDAVIKVIGVGGGGGNAVEHMVRERIEGVEFFAVNTDAQALRKTAVGQTIQIGSGITKGLGAGANPEVGRNAADEDRDALRAALEGADMVFIAAGMGGGTGTGAAPVVAEVAKDLGILTVAVVTKPFNFEGKKRMAFAEQGITELSKHVDSLITIPNDKLLKVLGRGISLLNAFGAANDVLKGAVQGIAELITRPGLMNVDFADVRTVMSEMGYAMMGSGVASGEDRAEEAAEMAISSPLLEDIDLSGARGVLVNITAGFDLRLDEFETVGNTIRAFASDNATVVIGTSLDPDMNDELRVTVVATGIGMDKRPEITLVTNKQVQQPVMDRYQQHGMAPLTQEQKPVAKVVNDNAPQTAKEPDYLDIPAFLRKQAD	–	< 25	–
α-FtsZ-D180K (natural protein, E. coli, UniProt P0A9A6 1-383, looked up, not shown: RNA polymerase α subunit N-terminal domain, N-terminal, kept) MFEPMELTNDAVIKVIGVGGGGGNAVEHMVRERIEGVEFFAVNTDAQALRKTAVGQTIQIGSGITKGLGAGANPEVGRNAADEDRDALRAALEGADMVFIAAGMGGGTGTGAAPVVAEVAKDLGILTVAVVTKPFNFEGKKRMAFAEQGITELSKHVDSLITIPNDKLLKVLGRGISLLKAFGAANDVLKGAVQGIAELITRPGLMNVDFADVRTVMSEMGYAMMGSGVASGEDRAEEAAEMAISSPLLEDIDLSGARGVLVNITAGFDLRLDEFETVGNTIRAFASDNATVVIGTSLDPDMNDELRVTVVATGIGMDKRPEITLVTNKQVQQPVMDRYQQHGMAPLTQEQKPVAKVVNDNAPQTAKEPDYLDIPAFLRKQAD	–	–	fold increase in lacZ expression [6]: 9 fold
α-FtsZ-S177P (natural protein, E. coli, UniProt P0A9A6 1-383, looked up, not shown: RNA polymerase α subunit N-terminal domain, N-terminal, kept) MFEPMELTNDAVIKVIGVGGGGGNAVEHMVRERIEGVEFFAVNTDAQALRKTAVGQTIQIGSGITKGLGAGANPEVGRNAADEDRDALRAALEGADMVFIAAGMGGGTGTGAAPVVAEVAKDLGILTVAVVTKPFNFEGKKRMAFAEQGITELSKHVDSLITIPNDKLLKVLGRGIPLLDAFGAANDVLKGAVQGIAELITRPGLMNVDFADVRTVMSEMGYAMMGSGVASGEDRAEEAAEMAISSPLLEDIDLSGARGVLVNITAGFDLRLDEFETVGNTIRAFASDNATVVIGTSLDPDMNDELRVTVVATGIGMDKRPEITLVTNKQVQQPVMDRYQQHGMAPLTQEQKPVAKVVNDNAPQTAKEPDYLDIPAFLRKQAD	–	< 25	–
α-FtsZ-L169P (natural protein, E. coli, UniProt P0A9A6 1-383, looked up, not shown: RNA polymerase α subunit N-terminal domain, N-terminal, kept) MFEPMELTNDAVIKVIGVGGGGGNAVEHMVRERIEGVEFFAVNTDAQALRKTAVGQTIQIGSGITKGLGAGANPEVGRNAADEDRDALRAALEGADMVFIAAGMGGGTGTGAAPVVAEVAKDLGILTVAVVTKPFNFEGKKRMAFAEQGITELSKHVDSLITIPNDKLPKVLGRGISLLDAFGAANDVLKGAVQGIAELITRPGLMNVDFADVRTVMSEMGYAMMGSGVASGEDRAEEAAEMAISSPLLEDIDLSGARGVLVNITAGFDLRLDEFETVGNTIRAFASDNATVVIGTSLDPDMNDELRVTVVATGIGMDKRPEITLVTNKQVQQPVMDRYQQHGMAPLTQEQKPVAKVVNDNAPQTAKEPDYLDIPAFLRKQAD	–	< 25	–
